Test results as given in the Human Domainome abundance scans (Beltran et al. 2025).
± gives the uncertainty stated by the source.

test: abundance fitness (aPCA) (normalised: wild type 0, dead -1); higher = more abundant; growth selection in yeast, the domain comes from the species named; details: Homo sapiens

Substance	abundance fitness
Ventral anterior homeobox 1 F119G, Q5SQQ9	-0.857 ± 0.16
Ventral anterior homeobox 1 Q111S, Q5SQQ9	-0.727 ± 0.14
Ventral anterior homeobox 1 F119P, Q5SQQ9	-0.978 ± 0.34
Ventral anterior homeobox 1 F119A, Q5SQQ9	-0.74 ± 0.21
Ventral anterior homeobox 1 Y113R, Q5SQQ9	-0.012 ± 0.097
Ventral anterior homeobox 1 Q111H, Q5SQQ9	-0.355 ± 0.17
Ventral anterior homeobox 1 F119S, Q5SQQ9	-0.64 ± 0.18
Ventral anterior homeobox 1 F119N, Q5SQQ9	-0.658 ± 0.32
Ventral anterior homeobox 1 Q111A, Q5SQQ9	-0.226 ± 0.13
Ventral anterior homeobox 1 Y113N, Q5SQQ9	0.168 ± 0.38
Ventral anterior homeobox 1 Q111R, Q5SQQ9	-0.732 ± 0.12
Ventral anterior homeobox 1 Y113H, Q5SQQ9	-0.096 ± 0.25
Ventral anterior homeobox 1 L115R, Q5SQQ9	-0.918 ± 0.16
Ventral anterior homeobox 1 L115K, Q5SQQ9	-0.821 ± 0.41
Ventral anterior homeobox 1 Q111T, Q5SQQ9	-0.068 ± 0.16
Ventral anterior homeobox 1 Q111P, Q5SQQ9	-0.716 ± 0.21
Ventral anterior homeobox 1 Q111M, Q5SQQ9	-0.31 ± 0.19
Ventral anterior homeobox 1 L115N, Q5SQQ9	-0.637 ± 0.35
Ventral anterior homeobox 1 F119E, Q5SQQ9	-1.16 ± 0.3
Ventral anterior homeobox 1 Q111N, Q5SQQ9	-0.262 ± 0.24

Substance	abundance fitness
Ventral anterior homeobox 1 Y113K, Q5SQQ9	-0.004 ± 0.24
Ventral anterior homeobox 1 Q111E, Q5SQQ9	-0.393 ± 0.17
Ventral anterior homeobox 1 Q111V, Q5SQQ9	-0.048 ± 0.12
Ventral anterior homeobox 1 L115D, Q5SQQ9	-0.822 ± 0.4
Ventral anterior homeobox 1 Q111I, Q5SQQ9	-0.231 ± 0.27
Ventral anterior homeobox 1 Q111L, Q5SQQ9	-0.807 ± 0.17
Ventral anterior homeobox 1 L115G, Q5SQQ9	-0.763 ± 0.16
Ventral anterior homeobox 1 Q111K, Q5SQQ9	-0.599 ± 0.28
Ventral anterior homeobox 1 Q111D, Q5SQQ9	-0.564 ± 0.18
Ventral anterior homeobox 1 Q111F, Q5SQQ9	-0.954 ± 0.32
Ventral anterior homeobox 1 F119R, Q5SQQ9	-0.88 ± 0.17
Ventral anterior homeobox 1 Y113D, Q5SQQ9	0.287 ± 0.2
Ventral anterior homeobox 1 Q111G, Q5SQQ9	-0.715 ± 0.11
Ventral anterior homeobox 1 F119K, Q5SQQ9	-0.837 ± 0.31
Ventral anterior homeobox 1 F119T, Q5SQQ9	-0.856 ± 0.29
Ventral anterior homeobox 1 Y113E, Q5SQQ9	0.209 ± 0.17
Ventral anterior homeobox 1 L115E, Q5SQQ9	-0.719 ± 0.29
Ventral anterior homeobox 1 Q111C, Q5SQQ9	-0.214 ± 0.18
Ventral anterior homeobox 1 Y113G, Q5SQQ9	0.01 ± 0.093
Ventral anterior homeobox 1 F119Q, Q5SQQ9	-0.727 ± 0.39
